The experiment has as its target Neisseria gonorrhoeae MtrE outer membrane channel (Neisseria gonorrhoeae) (UniProt Q51006). As to the kind of experiment: crystal structure; sitting-drop vapor diffusion, 20% PEG 400, 0.2 M sodium acetate pH 4.6, 0.25 M MgSO4, 2% OG, 0.05% DDM; space group P6(3)22, one protomer per asymmetric unit; 3.29 Å.

Results on one substance are retold here after publication PMC4046963.

What is called stoichiometry N is a count of units in the complex or per binding partner. “Neisseria gonorrhoeae MtrE outer membrane channel (from UniProt Q51006 1-467) (natural protein)” had a stoichiometry N of 3.
